We go through 7 molecules from patent publication US20230272099A1 (Chugai, published 2023).

Substitutions are numbered along the chain they refer to.

T1: human FcgRIIa type R extracellular domain (human, UniProt P12318 34-217)
T1 construct: extracellular domain; also called hFcgRIIaR
T1 sequence (looked up): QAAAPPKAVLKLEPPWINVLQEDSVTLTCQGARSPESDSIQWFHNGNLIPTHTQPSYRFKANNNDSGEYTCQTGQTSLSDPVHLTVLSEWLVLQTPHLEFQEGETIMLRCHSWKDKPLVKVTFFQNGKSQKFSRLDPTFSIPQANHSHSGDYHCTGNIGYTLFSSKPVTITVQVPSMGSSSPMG

T2: human FcgRIIb extracellular domain (human, UniProt P31994 43-217)
T2 construct: extracellular domain; also called hFcgRIIb
T2 sequence (looked up): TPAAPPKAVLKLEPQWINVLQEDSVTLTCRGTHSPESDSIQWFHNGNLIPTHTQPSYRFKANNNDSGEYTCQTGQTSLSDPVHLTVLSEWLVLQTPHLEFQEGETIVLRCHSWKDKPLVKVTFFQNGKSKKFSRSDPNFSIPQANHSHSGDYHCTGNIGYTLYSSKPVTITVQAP

T3: human FcgRIIa type H extracellular domain (human, UniProt P12318 34-217)
T3 construct: extracellular domain; also called hFcgRIIaH
T3 sequence (looked up): T1 sequence (looked up) with R134H

B1: A375-G1T3/B167-Lamlib (antibody, human IgG1, lambda)
heavy: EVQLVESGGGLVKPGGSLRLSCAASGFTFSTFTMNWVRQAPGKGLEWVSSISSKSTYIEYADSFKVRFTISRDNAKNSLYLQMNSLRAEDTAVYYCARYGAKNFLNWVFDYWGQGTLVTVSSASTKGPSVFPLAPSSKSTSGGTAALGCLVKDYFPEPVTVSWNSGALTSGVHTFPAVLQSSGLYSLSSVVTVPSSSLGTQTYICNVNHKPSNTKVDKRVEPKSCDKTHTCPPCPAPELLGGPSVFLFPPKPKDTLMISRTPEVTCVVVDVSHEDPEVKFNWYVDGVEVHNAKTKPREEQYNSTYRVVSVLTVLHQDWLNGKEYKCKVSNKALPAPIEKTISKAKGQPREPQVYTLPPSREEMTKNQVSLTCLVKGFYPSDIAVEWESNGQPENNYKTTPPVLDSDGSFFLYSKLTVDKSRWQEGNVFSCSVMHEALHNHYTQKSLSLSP
light: QSALTQPPSASGSPGQTVTISCTGTRYDVGYYEYVSWYQQHPGKAPKLMIYETSKRLSGVPDRFSGSKSGNTASLTVSGLQAEDEADYYCSSYRYEHQVSFGGGTKLTVLGQPKAAPSVTLFPPSSEELQANKATLVCLISDFYPGAVTVAWKADSSPVKAGVETTTPSKQSNNKYAASSYLSLTPEQWKSHRSYSCQVTHEGSTVEKTVAPTECS
notes: copies: 2 + 2
B2: A375-MY201a/B167-Lamlib (antibody, human IgG1, lambda)
heavy: EVQLVESGGGLVKPGGSLRLSCAASGFTFSTFTMNWVRQAPGKGLEWVSSISSKSTYIEYADSFKVRFTISRDNAKNSLYLQMNSLRAEDTAVYYCARYGAKNFLNWVFDYWGQGTLVTVSSASTKGPSVFPLAPSSKSTSGGTAALGCLVKDYFPEPVTVSWNSGALTSGVHTFPAVLQSSGLYSLSSVVTVPSSSLGTQTYICNVNHKPSNTKVDKRVEPKSCDKTHTCPPCPAPELLNGPSVFLFPPKPKDTLMISRTPEVTCVVVDVSDEDPEVKFNWYVDGVEVHNAKTKPREEQYNSTYRVVSVLTVLHQDWLNGKEYKCKVSNKALPKPIEKTISKAKGQPREPQVYTLPPSREEMTKNQVSLTCLVKGFYPSDIAVEWESNGQPENNYKTTPPVLDSDGSFFLYSKLTVDKSRWQQGNVFSCSVMHEALHNHYTQKSLSLSP
light: B1 light
notes: copies: 2 + 2
B3: A375-MY201aPh/B167-Lamlib (antibody, human IgG1, lambda)
heavy: B2 heavy with L240W
light: B1 light
notes: copies: 2 + 2
B4: A375-MY518/B167-Lamlib (antibody, human IgG1, lambda)
heavy: B2 heavy with R219K, L240W, Q300L, K331T
light: B1 light
notes: copies: 2 + 2
B5: A375-MY518a/B167-Lamlib (antibody, human IgG1, lambda)
heavy: B2 heavy with L240W, Q300L, K331T
light: B1 light
notes: copies: 2 + 2
B6: A375-TT11/B167-Lamlib (antibody, human IgG1, lambda)
heavy: B2 heavy with R219K, L239Y, N241G, P243D, T255V, D273H, T312P
light: B1 light
notes: copies: 2 + 2
B7: A375-P253/B167-Lamlib (antibody, human IgG1, lambda)
heavy: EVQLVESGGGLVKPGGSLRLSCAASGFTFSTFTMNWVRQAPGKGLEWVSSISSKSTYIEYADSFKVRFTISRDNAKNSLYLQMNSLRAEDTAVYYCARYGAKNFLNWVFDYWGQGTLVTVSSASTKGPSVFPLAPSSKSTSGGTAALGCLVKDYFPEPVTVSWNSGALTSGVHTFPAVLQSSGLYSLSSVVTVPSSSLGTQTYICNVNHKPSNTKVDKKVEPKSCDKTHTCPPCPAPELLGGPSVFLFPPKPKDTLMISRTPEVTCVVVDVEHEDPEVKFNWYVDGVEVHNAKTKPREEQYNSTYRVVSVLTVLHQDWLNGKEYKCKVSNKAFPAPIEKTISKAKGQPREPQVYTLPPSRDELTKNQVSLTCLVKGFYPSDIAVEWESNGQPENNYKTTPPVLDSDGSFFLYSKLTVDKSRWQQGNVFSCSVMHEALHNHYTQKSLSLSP
light: B1 light
notes: copies: 2 + 2

Sequence of human FcRn (P55899 24-290 limits assumed, chain 1 of 2): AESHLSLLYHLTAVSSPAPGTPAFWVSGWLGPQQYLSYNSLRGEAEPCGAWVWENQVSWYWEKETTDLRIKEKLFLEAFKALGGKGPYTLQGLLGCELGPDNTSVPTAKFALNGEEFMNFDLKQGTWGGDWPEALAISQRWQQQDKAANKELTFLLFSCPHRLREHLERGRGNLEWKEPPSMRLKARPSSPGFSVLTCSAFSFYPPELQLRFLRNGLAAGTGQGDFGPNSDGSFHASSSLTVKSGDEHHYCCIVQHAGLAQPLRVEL
Sequence of human FcRn (P61769 21-119 limits assumed, chain 2 of 2): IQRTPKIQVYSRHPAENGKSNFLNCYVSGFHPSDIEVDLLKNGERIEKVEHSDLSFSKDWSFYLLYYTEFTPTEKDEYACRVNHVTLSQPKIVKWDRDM
T4 sequence (P12314 16-292): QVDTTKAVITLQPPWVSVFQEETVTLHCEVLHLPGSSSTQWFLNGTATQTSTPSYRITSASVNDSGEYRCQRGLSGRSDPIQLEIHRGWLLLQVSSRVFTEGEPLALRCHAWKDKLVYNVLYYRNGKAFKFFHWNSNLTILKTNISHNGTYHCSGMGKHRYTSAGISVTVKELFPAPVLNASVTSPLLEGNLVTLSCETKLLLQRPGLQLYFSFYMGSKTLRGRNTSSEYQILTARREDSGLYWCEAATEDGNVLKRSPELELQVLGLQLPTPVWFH

One assay addresses human FcRn (human, UniProt P55899 24-290; P61769 21-119). The experiment in a line: SPR 25C pH 6.0, steady state. Here is the method:
Biacore T200 (GE Healthcare) was used to assess the binding activity to human FcRn. Measurement was performed at 25° C. using 50 mM phosphate, 150 mM NaCl, 0.05 w/v %-P20, pH 6.0 as buffer. Human FcRn proteins used for this determination were prepared by the procedure described in WO2010107110. About 400 RU of antibody was captured using a sensor chip immobilized with CaptureSelect™ Human Fab-lambda Kinetics Biotin Conjugate (Thermo Fisher Scientific) as a molecule for ligand capturing, followed by the binding of human FcRn diluted in measuring buffer. The activity of the respective antibodies to bind FcRn was assessed by calculating KD(mol/L) by the steady-state model using Biacore T200 Evaluation Software 2.0.
By Kd is commonly meant the constant that tells how readily two partners part at equilibrium. The molecule B1 yielded a dissociation constant (Kd) of 1270 nM.
Same read-out and setting: in the case of B2 it was 1190 nM.
With B3, the Kd was 1180 nM.
Turning to B4, the Kd was 1270 nM.
In turn, B5 showed a Kd of 1320 nM.
Regarding B6, the affinity, expressed as Kd, was 1560 nM.
Same read-out and setting: in the case of B7 it was 1420 nM.

Another assay concerns the target T1, human FcgRIIa type R extracellular …. As to the kind of experiment: SPR 25C. Here is the method: (§1) Biacore T200 (GE Healthcare) was used to evaluate the binding activity to the respective human Fcγ receptor (hereafter referred to as FcγR). Measurement was performed at 25° C. using 50 mM phosphate, 150 mM NaCl, 0.05 w/v %-P20, pH 7.4 as buffer. About 1000 RU of antibody was captured using a sensor chip immobilized with CaptureSelect™ Human Fab-lambda Kinetics Biotin Conjugate (Thermo Fisher Scientific) as a molecule for ligand capturing. Human FcγR was diluted to 8 nM for FcγRIa and 1000 nM for other FcγR in the measurement buffer, and it was interacted to the captured antibody. The binding activity of each antibody to FcγR was assessed by calculating the binding amount of FcγR (RU) per unit amount of antibody using Biacore T200 Evaluation Software 2.0.
With B1, the “binding per 1RU antibody” value was determined as 0.0463 RU and the “relative binding (A375-G1T3/B167-Lamlib=1)” value (from here on “relative binding”) was found to be 1.
The like results for B2 were, in that order, 0.0338 RU and 0.73.
For B3 the same measures were 0.0335 RU and 0.72.
In the case of B4, the “binding per 1RU antibody” value is 0.046 RU and the “relative binding” value came out at 0.99.
For the molecule B5, the “binding per 1RU antibody” value was determined as 0.047 RU and the “relative binding” value was found to be 1.01.
As to B7, the “binding per 1RU antibody” value was found to be 0.168 RU and the “relative binding” value is 3.62.

Another assay addresses T4, human FcgRIa extracellular domain (human, UniProt P12314 16-292).
T4 construct: extracellular domain; also called hFcgRIa
The experiment in a line: SPR 25C. Here is the method:
as §1
For the molecule B1, the “binding per 1RU antibody” value amounted to 0.0813 RU and the “relative binding” value came out at 1.
Turning to B2, the “binding per 1RU antibody” value worked out at 0.0396 RU and the “relative binding” value turned out to be 0.49.
For the molecule B3, the “binding per 1RU antibody” value stood at 0.004 RU and the “relative binding” value was 0.05.
For B4 the same measures were 0.002 RU and 0.02.
As for B5, the “binding per 1RU antibody” value stood at 0.0033 RU and the “relative binding” value is 0.04.
Regarding B7, the “binding per 1RU antibody” value came out at 0.0937 RU and the “relative binding” value came out at 1.15.

The target in a further assay is T5, human FcgRIIIa F158 extracellular domain (human, UniProt P08637 17-208).
T5 construct: extracellular domain; also called hFcgRIIIaF
T5 sequence (P08637 17-208): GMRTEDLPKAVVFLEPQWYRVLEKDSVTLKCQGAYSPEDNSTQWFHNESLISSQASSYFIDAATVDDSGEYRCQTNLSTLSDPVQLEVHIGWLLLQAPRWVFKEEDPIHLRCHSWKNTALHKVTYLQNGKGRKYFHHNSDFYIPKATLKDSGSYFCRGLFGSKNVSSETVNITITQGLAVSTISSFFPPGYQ
As to the kind of experiment: SPR 25C. Here is the method:
as §1
For the molecule B1, the “binding per 1RU antibody” value amounted to 0.0213 RU and the “relative binding” value came to 1.
Consider B2, for which the “binding per 1RU antibody” value was 0.0007 RU and the “relative binding” value is 0.04.
Consider B3, for which the “binding per 1RU antibody” value amounted to 0.0007 RU and the “relative binding” value came out at 0.03.
For the molecule B4, the “binding per 1RU antibody” value came out at 0.0009 RU and the “relative binding” value stood at 0.04.
In the case of B5, the “binding per 1RU antibody” value came to 0.0006 RU and the “relative binding” value came out at 0.03.
For B6 the same measures were -0.0009 RU and -0.04.
In the case of B7, the “binding per 1RU antibody” value was found to be 0.0056 RU and the “relative binding” value is 0.26.

The target in the next assay is T6, human FcgRIIIa V158 extracellular domain (human, UniProt P08637 17-208).
T6 construct: extracellular domain; also called hFcgRIIIaV
T6 sequence (P08637 17-208 F176V): as the sequence (P08637 17-208) above, with F160V counted along it
The experiment in a line: SPR 25C. Here is the method:
as §1
Turning to B1, the “binding per 1RU antibody” value was determined as 0.07 RU and the “relative binding” value is 1.
Regarding B2, the “binding per 1RU antibody” value was 0.0024 RU and the “relative binding” value turned out to be 0.03.
For B3 the same measures were 0.0011 RU and 0.02.
Take B4: the “binding per 1RU antibody” value turned out to be 0.0015 RU and the “relative binding” value was determined as 0.02.
Take B5: the “binding per 1RU antibody” value was 0.0009 RU and the “relative binding” value was determined as 0.01.
For B6, the “binding per 1RU antibody” value was -0.001 RU and the “relative binding” value is -0.01.
For B7, the “binding per 1RU antibody” value turned out to be 0.0019 RU and the “relative binding” value turned out to be 0.03.

The next assay addresses T2, human FcgRIIb extracellular domain. As to the kind of experiment: SPR 25C. Here is the method:
as §1
Regarding B1, the “binding per 1RU antibody” value came out at 0.011 RU and the “relative binding” value amounted to 1.
For the molecule B2, the “binding per 1RU antibody” value worked out at 0.0401 RU and the “relative binding” value was 3.66.
With B3, the “binding per 1RU antibody” value amounted to 0.0313 RU and the “relative binding” value is 2.85.
With B4, the “binding per 1RU antibody” value was found to be 0.0482 RU and the “relative binding” value was determined as 4.4.
Consider B5, for which the “binding per 1RU antibody” value was found to be 0.0489 RU and the “relative binding” value is 4.46.
As to B6, the “binding per 1RU antibody” value is 0.0477 RU and the “relative binding” value amounted to 4.35.
For B7 the same measures were 0.156 RU and 14.3.

The next assay deals with T3, human FcgRIIa type H extracellular …. The experiment in a line: SPR 25C. Here is the method:
as §1
As for B1, the “binding per 1RU antibody” value worked out at 0.0567 RU and the “relative binding” value was determined as 1.
Turning to B2, the “binding per 1RU antibody” value was found to be 0.0534 RU and the “relative binding” value was determined as 0.94.
The like results for B3 were, in that order, 0.0328 RU and 0.58.
Consider B4, for which the “binding per 1RU antibody” value came to 0.0465 RU and the “relative binding” value was found to be 0.82.
Take B5: the “binding per 1RU antibody” value was determined as 0.0479 RU and the “relative binding” value worked out at 0.84.
The like results for B6 were, in that order, 0.002 RU and 0.03.
With B7, the “binding per 1RU antibody” value is 0.0497 RU and the “relative binding” value turned out to be 0.88.
